Data taken from PMC9172573, “Covalent labeling of a chromatin reader domain using proximity-reactive cyclic peptides†” (Chemical Science, 2022).
Changes are numbered by the printed parent chain. Names may count otherwise. Square brackets hold non-standard residues; d marks the D form. Ends that are not written are not given here. Peptide text beside a SMILES is read from it. Lys(Me3) = C[N+](C)(C)CCCC[C@H](N)C(=O)O; fluorescent label = not defined here; Arg(Me) = CNC(=N)NCCC[C@H](N)C(=O)O; Aib = CC(C)(N)C(=O)O; Me3 = trimethyl

Legend:
[1] = target: His6-MBP-PHD3 (PHD3 domain of histone demethylase KDM5A) (UniProt P29375); assay: fluorescence polarisation; competition: recombinant His6-MBP-PHD3 incubated with the 10mer H3K4me3 tracer (C-terminal fluorescent label), then varying concentrations of the competing peptide; Ki
[2] = target: His6-MBP-PHD3 (PHD3 domain of histone demethylase KDM5A) (UniProt P29375); assay: FP
[3] = oxyguanidino / guanidino side-chain group; cited from earlier work
[4] = target: recombinant His6-MBP-PHD3 (PHD3 domain of KDM5A) (Homo sapiens, UniProt P29375)
trypsin = trypsin stability assay; format: in vitro ADME; details: peptide and trypsin 1:1 w/w, 1x PBS, RT, HPLC
Protocol: Trypsin stability assay: Peptide and trypsin (1:1 w/w) were mixed in 1x PBS buffer and the resulting mixture was incubated at RT. Proteolysis reactions at a given time point was quenched by adding HCl. The proteolysis process was monitored by subjecting the quenched mixture onto r everse-phase HPLC column monitoring at 2 14 nm [H2O (A):MeCN (B); 5% to 100% solvent B over 23 min].
Fig. S2a: Chromatograms of WT H3K4me3 hexapeptide ( 1) before and after incubation with trypsin ( t = < 5 min).
(1 picture or pasted object on this page, not shown here)

[5] = target: T1, His6-MBP-PHD3 (PHD3 domain of histone demethylase KDM5A) (UniProt P29375 1609-1659); assay: FP
T1 chain: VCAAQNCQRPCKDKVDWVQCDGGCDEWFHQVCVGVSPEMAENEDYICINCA

[6] = target: T2, His6-MBP-PHD3 (PHD3 domain of histone demethylase KDM5A) (UniProt P29375 1609-1659); assay: fluorescence polarisation; competition: recombinant His6-MBP-PHD3 incubated with the 10mer H3K4me3 tracer (C-terminal fluorescent label), then varying concentrations of the competing peptide; Ki; details: both partners purified
T2 construct: KDM5A, third (C-terminal) PHD finger, PHD3; holds K1620, K1622, W1625, W1635; also called recombinant His6-MBP-PHD3 protein; KDM5A-PHD3; source: recombinant; not shown: His6, N-terminal, kept; MBP, N-terminal, kept
T2 sequence: T1 chain

[7] = target: T1, His6-MBP-PHD3 (PHD3 domain of histone …); assay: FP
PHD3 K1620A = target: T3, PHD3 K1620A (UniProt P29375 1609-1659, K1620A); assay: FP
T3 sequence: T1 chain with K12A

[8] = target: T4, PHD3 double mutant K1620A/K1622A (UniProt P29375 1609-1659, K1620A | K1622A); assay: FP
T4 sequence: T1 chain with K12A, K14A

PHD3 K1622A = target: T5, PHD3 K1622A (UniProt P29375 1609-1659, K1622A); assay: FP
T5 sequence: T1 chain with K14A

[9] = target: T1, His6-MBP-PHD3 (PHD3 domain of histone …); assay: FP

With “H3K4me3 6mer peptide 8 (R2 replaced with canavanine) (from UniProt P68431 2-7)” as the molecule, how does the Ki [1] read?
Its Ki is 2300 nM.

Which Ki [2] does the source give for “H3K4me3 6mer peptide 4 (A1 sidechain modified) (from UniProt P68431 2-7)” here?
The Ki was 12000 nM.

With “H3K4me3 6mer peptide 9 (R2 replaced with homo-arginine) (from UniProt P68431 2-7)” as the molecule, how does the Ki [1] read?
The Ki was 740 nM.

Which pKa [3] does the source give for NC(N)=NCCCC[C@H](N)C(=O)O [homo-arginine] here?
Its pKa is ~12.48.

Which Ki [1] does the source give for “H3 6mer peptide 14 (K4me3 replaced with homo-arginine) (from UniProt P68431 2-7)” here?
The Ki was 690 nM.

For C[C@@H](O)[C@H](NC(=O)[C@H](CCC(N)=O)NC(=O)[C@H](CCCC[N+](C)(C)C)NC(=O)[C@@H](NC(=O)[C@H](CCCNC(=N)N)NC(=O)[C@@H]1CCCN1)[C@@H](C)O)C(N)=O [compound 6] (H-PRT[Lys(Me3)]QT-NH2), which Ki [4] is on record?
Its Ki is 2700 ± 640 nM.

With C[C@H](N)C(=O)N[C@@H](CCCNC(=N)N)C(=O)N[C@H](C(=O)N[C@@H](CCCC[N+](C)(C)C)C(=O)N[C@@H](CCC(N)=O)C(=O)N[C@@H](C)C(=O)N[C@@H](C)C(=O)N[C@@H](CCCNC(=N)N)C(=O)N[C@@H](CCCCN)C(=O)N[C@@H](CO)C(N)=O)[C@@H](C)O [T6A] as the molecule, how does the Ki [4] read?
The Ki was 150 ± 47 nM.

For N=C(N)NCCC[C@H](N)C(=O)O [arginine], which pKa [3] is on record?
The pKa was ~12.48.

For C[C@@H](O)[C@H](NC(=O)[C@H](CCC(N)=O)NC(=O)[C@H](CCCC[N+](C)(C)C)NC(=O)[C@@H](NC(=O)[C@H](CCCNC(=N)N)NC(=O)[C@@H](N)CO)[C@@H](C)O)C(N)=O [compound 5] (H-SRT[Lys(Me3)]QT-NH2), which Ki [4] is on record?
The Ki was 1700 ± 300 nM.

With C[C@H](N)C(=O)N[C@@H](CCCNC(=N)N)C(=O)N[C@H](C(=O)N[C@@H](CCCC[N+](C)(C)C)C(=O)N[C@@H](CCC(N)=O)C(=O)N[C@H](C(N)=O)[C@@H](C)O)[C@@H](C)O [compound 1, ARTK(me3)QT] (H-ART[Lys(Me3)]QT-NH2) as the molecule, how does the tryptic stability (trypsin) read?
Its tryptic stability is “highly susceptible to tryptic digestion”.

With N=C(N)NOCC[C@H](N)C(=O)O [canavanine] as the molecule, how does the pKa [3] read?
Its pKa is 7.01.

With ARV[Lys(Me3)]QT [H3K4me3 6mer peptide 13 (T3V)] as the molecule, how does the Ki [5] read?
Its Ki is 240 nM.

Which Ki [6] does the source give for ARTK(Me3)QT [hexapeptide ARTK(me3)QT (1)] here?
The Ki was 130 nM.

B1: sulfone cyclopeptide C-20c (peptide, UniProt P68431 2-7, looked up)
peptide: ARTKQC
modifications: not fully specified; Cys at 6; ε-amino group of dimethyllysine 4 stapled to the Cys6 sulfur with 1,2-bis(bromomethyl)benzene, thioether oxidised to the sulfone
notes: Full-length, cleaved form of intermediate C-20; also called series C; source: synthetic peptide, Fmoc-SPPS on Rink amide resin
With B1 as the molecule, how does the “fold decrease in binding affinity (against the thioether C-18c, as read)” value [6] read?
Its value is 5 fold.

With ART[Lys(Me3)]QTARAS [K9A] as the molecule, how does the Ki [7] read?
Its Ki is 28 nM.

With Ac-ART[Lys(Me3)]QT [N-terminally acetylated H3K4me3 6mer peptide (2)] as the molecule, how does the Ki [5] read?
Its Ki is 76000 nM.

With A[Arg(Me)]T[Lys(Me3)]QT [H3K4me3 6mer peptide 10 (R2 guanidino group monomethylated)] as the molecule, how does the Ki [5] read?
Its Ki is 220 nM.

For ART[Lys(Me3)]QTA (not fully specified) [7mer], which Ki [7] is on record?
Its Ki is 43 nM.

Which Ki [7] does the source give for ART[Lys(Me3)] (not fully specified) [4mer] here?
The Ki was 2700 nM.

Which Ki [7] does the source give for AAT[Lys(Me3)]QTARKS [H3K4me3 10mer peptide, R2 replaced with Ala] here?
Its Ki is 560 nM.

Which Ki [7] does the source give for ARA[Lys(Me3)]QTARKS [H3K4me3 10mer peptide, T3 replaced with Ala] here?
The Ki was 650 nM.

With ART[Lys(Me3)]QTAR (not fully specified) [8mer] as the molecule, how does the Ki [7] read?
Its Ki is 54 nM.

For [Aib]RT[Lys(Me3)]QT [2-aminoisobutyric acid-containing peptide 7], which Ki [5] is on record?
The Ki was 310 nM.

With ART[Lys(Me3)]QTAAKS [R8A] as the molecule, how does the Ki [7] read?
The Ki was 69 nM.

Which Ki [5] does the source give for Me-ART[Lys(Me3)]QT [N-terminally methylated H3K4me3 6mer peptide (3)] here?
The Ki was 150 nM.

With ART[Lys(Me3)]QTARKS-{fluorescent label} (reading uncertain) [10mer H3K4me3 tracer containing a C-terminal fluorescent label] as the molecule, how does the Kd (PHD3 K1620A) read?
The Kd was 58 nM.

And the Kd [8]?
Its Kd is 71 nM.

And the Kd (PHD3 K1622A)?
Its Kd is 160 nM.

What about the Kd [9] of the same molecule?
The Kd was 83 nM.

Which Ki [7] does the source give for ART[Lys(Me3)]QTARK (not fully specified) [9mer] here?
Its Ki is 15 nM.

For ART[Lys(Me3)]QTARKA [S10A], which Ki [7] is on record?
Its Ki is 12 nM.

Which Ki [7] does the source give for ARTAQTARKS [H3 10mer peptide, K4 replaced with Ala] here?
The Ki was 30000 nM.

For ART[Lys(Me3)]YT [H3K4me3 6mer peptide 15 (Q5 replaced with tyrosine)], which Ki [5] is on record?
The Ki was 440 nM.

With ART[Lys(Me3)]ATARKS [H3K4me3 10mer peptide Q5A] as the molecule, how does the Ki [7] read?
The Ki was 59 nM.
